Data as given in patent US7432070B2, “Homogenous assay for enzymatic activity” (Pierce Biotechnology, Inc., priority 2003, dated 2008).
Non-standard residues stand in square brackets, D forms with d. No end group written: not given here. pS = N[C@@H](COP(=O)(O)O)C(=O)O; Nva = CCC[C@H](N)C(=O)O

Assays:
Calpain 1 = biological target: T1, Calpain 1 (Homo sapiens, UniProt P07384); assay: Km determination for Calpain 1 using the protease assay; format: biochemical; settings: substrate at 0.078, 0.15, 0.31 and 0.62 μM, 13.15 U/ml Calpain 1, 5 minutes, room temperature, N=3; read-out: Km of labeled peptide substrate for Calpain 1
T1 construct: Calpain 1 from human erythrocytes; purchased Calbiochem; host or cells: human erythrocytes
T1 sequence (P07384 1-714): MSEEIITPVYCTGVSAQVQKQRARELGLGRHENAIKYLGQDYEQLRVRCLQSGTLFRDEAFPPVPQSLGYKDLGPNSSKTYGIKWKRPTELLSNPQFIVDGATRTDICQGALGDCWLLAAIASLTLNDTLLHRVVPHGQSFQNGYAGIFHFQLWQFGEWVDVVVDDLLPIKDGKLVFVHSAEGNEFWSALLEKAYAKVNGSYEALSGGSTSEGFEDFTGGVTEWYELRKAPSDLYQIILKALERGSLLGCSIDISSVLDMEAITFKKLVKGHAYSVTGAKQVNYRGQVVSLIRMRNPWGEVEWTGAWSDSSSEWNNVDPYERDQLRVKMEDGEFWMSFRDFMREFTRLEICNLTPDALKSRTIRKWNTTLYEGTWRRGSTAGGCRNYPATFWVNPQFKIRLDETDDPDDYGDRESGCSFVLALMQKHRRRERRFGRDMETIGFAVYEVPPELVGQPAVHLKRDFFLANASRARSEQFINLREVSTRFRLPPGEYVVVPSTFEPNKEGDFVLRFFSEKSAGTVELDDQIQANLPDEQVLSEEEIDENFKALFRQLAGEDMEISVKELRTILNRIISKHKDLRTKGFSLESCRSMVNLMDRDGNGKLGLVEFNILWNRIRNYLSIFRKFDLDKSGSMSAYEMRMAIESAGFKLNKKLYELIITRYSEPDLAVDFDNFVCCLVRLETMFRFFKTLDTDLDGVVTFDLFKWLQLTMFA
T1 sequence (P04632 1-268 partner): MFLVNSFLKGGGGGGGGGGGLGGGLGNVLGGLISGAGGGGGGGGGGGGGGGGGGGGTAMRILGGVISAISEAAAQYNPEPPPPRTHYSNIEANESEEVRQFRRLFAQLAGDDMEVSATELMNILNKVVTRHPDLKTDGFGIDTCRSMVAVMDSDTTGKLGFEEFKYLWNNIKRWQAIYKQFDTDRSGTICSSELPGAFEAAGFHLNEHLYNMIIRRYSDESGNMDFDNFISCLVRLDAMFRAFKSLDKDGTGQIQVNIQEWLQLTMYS
Procedure: (§1) Pepsin A was purchased from Sigma. TPCK Trypsin was obtained from Pierce Biotechnology.
Calpain 1 Lissamine rhodamine-labeled peptide substrate (Dye-[…] PRDpSA) (SEQ. ID NO 3) at 0.078, 0.15, 0.31 and 0.62 μM were digested with 13.15 U/ml Calpain 1. The Lissamine rhodamine-labeled peptide was prepared in 25 mM Tris, 150 mM NaCl pH 7.5, 10 mM CaCl2, and Calpain 1 was prepared in 25 mM Tris, 150 mM NaCl pH 7.5. […] N=3.

MMP-3 = biological target: T2, MMP-3 (Homo sapiens, UniProt P08254); assay: Km determination for MMP-3 using the protease assay; format: biochemical; settings: substrate at 1, 2, 5 and 10 μM, 0.88 mU/ml MMP-3, 5 minutes, room temperature, N=3; read-out: Km of labeled peptide substrate for MMP-3
T2 construct: Recombinant MMP-3 catalytic subunit; purchased Calbiochem
T2 sequence (P08254 100-272 limits assumed, species assumed): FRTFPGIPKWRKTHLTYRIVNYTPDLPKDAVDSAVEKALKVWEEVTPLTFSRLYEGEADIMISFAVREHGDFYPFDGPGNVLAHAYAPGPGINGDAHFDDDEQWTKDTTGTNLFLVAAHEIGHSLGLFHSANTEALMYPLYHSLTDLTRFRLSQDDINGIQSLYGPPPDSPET
Excerpt: as §1

Km (Calpain 1) [µM] | Km (MMP-3) [µM] | Substance
0.17 ± 0.01 |  | Dye-QQQEVYGMM PRDpSA: Calpain 1 Lissamine rhodamine-labeled peptide substrate, label at the N-terminus ({Lissamine rhodamine}-QQQEVYGMMPRD[pS]A)
 | 1.44 ± 0.15 | Dye-RPKPVE-Norvaline-WRKpSA: MMP-3 Lissamine rhodamine-labeled peptide substrate, label at the N-terminus ({Lissamine rhodamine}-RPKPVE[Nva]WRK[pS]A)
